In article PMC8774053, “Genome-wide association of the metabolic shifts underpinning dark-induced senescence in Arabidopsis” (The Plant Cell, 2021) one finds Km and kcat data, which are given here for two proteins.

As a reminder, the Km is the concentration of substrate that gives half-maximal velocity. By kcat is commonly meant the number of substrate molecules converted per active site and unit of time at saturation.

Substrate in this series: N[C@@H](Cc1ccc(O)cc1)C(=O)O
Kind of series: purified protein. Format: biochemical, Arabidopsis thaliana. As to conditions: 0-8 mM tyrosine, 100 mM alpha-ketoglutarate, 0.2 mM PLP, 100 mM Tris-HCl pH 8.5, 30 C, 5 min, constant not given in text, figure only.

B1: TAT1^A (accession CAM-61) (Arabidopsis thaliana) (protein)
chain: MENGATTTSTITIKGILSLLMESITTEEDEGGKRVISLGMGDPTLYSCFRTTQVSLQAVSDSLLSNKFHGYSPTVGLPQARRAIAEYLSRDLPYKLSQDDVFITSGCTQAIDVALSMLARPRANILLPRPGFPIYELCAKFRHLEVRYVDLLPENGWEIDLDAVEALADENTVALVVINPGNPCGNVYSYQHLMKIAESAKKLGFLVIADEVYGHLAFGSKPFVPMGVFGSIVPVLTLGSLSKRWIVPGWRLGWFVTTDPSGSFKDPKIIERFKKYFDILGGPATFIQAAVPTILEQTDESFFKKTLNSLKNSSDICCDWIKEIPCIDSSHRPEGSMAMMVKLNLSLLEDVSDDIDFCFKLAREESVILLPGTAVGLKNWLRITFAADATSIEEAFKRIKCFYLRHAKTQYPTI
As for B1, the Km was found to be 410 ± 30 µM and the kcat is 45.85 ± 0.88 s⁻¹.

B2: TAT1 (Col-0, At5g53970.1; positive control) (Arabidopsis thaliana) (protein)
chain: MENGATTTSTITIKGILSLLMESITTEEDEGGKRVISLGMGDPTLYSCFRTTQVSLQAVSDSLLSNKFHGYSPTVGLPQARRAIAEYLSRDLPYKLSQDDVFITSGCTQAIDVALSMLARPRANILLPRPGFPIYELCAKFRHLEVRYVDLLPENGWEIDLDAVEALADENTVALVVINPGNPCGNVYSYQHLMKIAESAKKLGFLVIADEVYGHLAFGSKPFVPMGVFGSIVPVLTLGSLSKRWIVPGWRLGWFVTTDPSGSFKDPKIIERFKKYFDILGGPATFIQAAVPTILEQTDESFFKKTLNSLKNSSDICCDWIKEIPCIDSSHRPEGSMAMMVKLNLSLLEDVSDDIDFCFKLAREESVILLPGTAVGLKNWLRITFAADATSIEEAFKRIKCFYLRHAKTQYPTI
As to B2, the Km stood at 390 ± 60 µM and the catalytic constant (kcat) was 47.84 ± 1.72 s⁻¹.
